# Test results as given in US12180485B2, “Repressible control of gene expression” (TRUSTEES OF BOSTON UNIVERSITY, priority 2020, dated 2024).
# “Also recorded” adds a separate entry of the source.
# B1: Flp split 374/375: split Flp, aa 1-374 / 375-423 of SEQ ID NO: 60, with tandem or single CaffVHH (protein, listed as Saccharomyces cerevisiae)
# chain: MSQFDILCKTPPKVLVRQFVERFERPSGEKIASCAAELTYLCWMITHNGTAIKRATFMSYNTIISNSLSFDIVNKSLQFKYKTQKATILEASLKKLIPAWEFTIIPYNGQKHQSDITDIVSSLQLQFESSEEADKGNSHSKKMLKALLSEGESIWEITEKILNSFEYTSRFTKTKTLYQFLFLATFINCGRFSDIKNVDPKSFKLVQNKYLGVIIQCLVTETKTSVSRHIYFFSARGRIDPLVYLDEFLRNSEPVLKRVNRTGNSSSNKQEYQLLKDNLVRSYNKALKKNAPYPIFAIKNGPKSHIGRHLMTSFLSMKGLTELTNVVGNWSDKRASAVARTTYTHQITAIPDHYFALVSRYYAYDPISKEMIAL
# modifications: split with 375-423; CaffVHH fusions
# B2: 565/566: RfxCas13d split between residues 565/566; N and C fragments plain or fused to CID domains (protein)
# chain 1: IEKKKSFAKGMGVKSTLVSGSKVYMTTFAEGSDARLEKIVEGDSIRSVNEGEAFSAEMADKNAGYKIGNAKFSHPKGYAVVANNPLYTGPVQQDMLGLKETLEKRYFGESADGNDNICIQVIHNILDIEKILAEYITNAAYAVNNISGLDKDIIGFGKFSTVYTYDEFKDPEHHRAAFNNNDKLINAIKAQYDEFDNFLDNPRLGYFGQAFFSKEGRNYIINYGNECYDILALLSGLRHWVVHNNEEESRISRTWLYNLDKNLDNEYISTLNYLYDRITNELTNSFSKNSAANVNYIAETLGINPAEFAEQYFRFSIMKEQKNLGFNITKLREVMLDRKDMSEIRKNHKVFDSIRTKVYTMMDFVIYRYYIEEDAKVAAANKSLPDNEKSLSEKDIFVINLRGSFNDDQKDALYYDEANRIWRKLENIMHNIKEFRGNKTREYKKKDAPRLPRILPAGRDVSAFSKLMYALTMFLDGKEINDLLTTLINKFDNIQSFLKVMPLIGVNAKFVEEYAFFKDSAKIADELRLIKSFARMGEPIADARRAMYIDAIRILGTNLSYDELK
# chain 2: ALADTFSLDENGNKLKKGKHGMRNFIINNVISNKRFHYLIRYGDPAHLHEIAKNEAVVKFVLGRIADIQKKQGQNGKNQIDRYYETCIGKDKGKSVSEKVDALTKIITGMNYDQFDKKRSVIEDTGRENAEREKFKKIISLYLTVIYHILKNIVNINARYVIGFHCVERDAQLYKEKGYDINLKKLEEKGFSSVTKLCAGIDETAPDKRKDVEKEMAERAKESIDSLESANPKLYANYIKYSDEKKAEEFTRQINREKAKTALNAYLRNTKWNVIIREDLLRIDNKTCTLFRNKAVHLEVARYVHAYINDIAEVNSYFQLYHYIMQRIIMNERYEKSSGKVSEYFDAVNDEKKYNDRLLKLLCVPFGYCIPRFKNLSIEALFDRNEAAKFDKEKKKVSGNS
# B3: LwaCas13a: Cas13a from Leptotrichia wadei (protein, listed as Leptotrichia wadei)
# chain: MKVTKVDGISHKKYIEEGKLVKSTSEENRTSERLSELLSIRLDIYIKNPDNASEEENRIRRENLKKFFSNKVLHLKDSVLYLKNRKEKNAVQDKNYSEEDISEYDLKNKNSFSVLKKILLNEDVNSEELEIFRKDVEAKLNKINSLKYSFEENKANYQKINENNVEKVGGKSKRNIIYDYYRESAKRNDYINNVQEAFDKLYKKEDIEKLFFLIENSKKHEKYKIREYYHKIIGRKNDKENFAKIIYEEIQNVNNIKELIEKIPDMSELKKSQVFYKYYLDKEELNDKNIKYAFCHFVEIEMSQLLKNYVYKRLSNISNDKIKRIFEYQNLKKLIENKLLNKLDTYVRNCGKYNYYLQVGEIATSDFIARNRQNEAFLRNIIGVSSVAYFSLRNILETENENGITGRMRGKTVKNNKGEEKYVSGEVDKIYNENKQNEVKENLKMFYSYDFNMDNKNEIEDFFANIDEAISSIRHGIVHFNLELEGKDIFAFKNIAPSEISKKMFQNEINEKKLKLKIFKQLNSANVFNYYEKDVIIKYLKNTKFNFVNKNIPFVPSFTKLYNKIEDLRNTLKFFWSVPKDKEEKDAQIYLLKNIYYGEFLNKFVKNSKVFFKITNEVIKINKQRNQKTGHYKYQKFENIEKTVPVEYLAIIQSREMINNQDKEEKNTYIDFIQQIFLKGFIDYLNKNNLKYIESNNNNDNNDIFSKIKIKKDNKEKYDKILKNYEKHNRNKEIPHEINEFVREIKLGKILKYTENLNMFYLILKLLNHKELTNLKGSLEKYQSANKEETFSDELELINLLNLDNNRVTEDFELEANEIGKFLDFNENKIKDRKELKKFDTNKIYFDGENIIKHRAFYNIKKYGMLNLLEKIADKAKYKISLKELKEYSNKKNEIEKNYTMQQNLHRKYARPKKDEKFNDEDYKEYEKAIGNIQKYTHLKNKVEFNELNLLQGLLLKILHRLVGYTSIWERDLRFRLKGEFPENHYIEEIFNFDNSKNVKYKSGQIVEKYINFYKELYKDNVEKRSIYSDKKVKKLKQEKKDLYIRNYIAHFNYIPHAEISLLEVLENLRKLLSYDRKLKNAIMKSIVDILKEYGFVATFKIGADKKIEIQTLESEKIVHLKNLKKKKLMTDRNSEELCELVKVMFEYKALE
# Columns and labels:
# Format in all cases: cell-based
# mCherry [1] = test: Split Cas13 (559/560) or WTCas13 driven by inducible promoters (NFkB, CAGA12, AP1), mCherry knockdown; conditions: NFkB promoter with TGFbeta; CAGA12 promoter with TNFalpha; AP1 promoter with PMA
# Text: FIG. 13A-13E is a series of schematics and graphs showing the coupling of split Cas13 (559/560) expression to inducible promoters responsive to endogenous signals. Inducible promoters responsive to endogenous signals drove split Cas13 expression for the construction of AND logic gate. FIG. 13A is a schematic showing the transfection compositions of endogenous signal-responsive promoters (e.g., “short response elements” and “miniP”) driving split Cas13d's. […] FIG. 13E is a series of bar graphs showing that orthogonality among the 3 inducible promoters tested. In FIG. 13B-13D, the left-right order of the bars for each design is the same as the top-down order of the legend for each bar graph, and “NT-gRNA” is non-target gRNA. In FIG. 13E, the left-right order of the bars is the same as the top-down order of the legend for each bar graph.
# NFkB promoter = test: Orthogonality of inducible promoters driving fluorescent proteins; conditions: PMA is the inducer for AP1 promoter
# Text: Although the propensity of many Cas13 splits to reconstitute spontaneously has led to leaky knockdown activity when coupled with CID systems, transcriptional control of such splits creates an AND gate logic. Inducible promoters (IP) such as WNT, NFkB, CAGA12, and AP1 promoters are available to orthogonally drive split Cas13 expression. In such design, there can only be target knockdown activity when there is input for both promoters. After verification for the ability of these promoters to inducibly drive gene expression using fluorescent proteins (see e.g., FIG. 13E), experiments were conducted with split RfxCas13d pieces and WT RfxCas13d. The chosen split was 559/560 as this split pair is able to achieve target knockdown efficiency more than 80%, and its knockdown ability surpasses that of WT RfxCas13d when coupled with the GIB CID system. Inducible promoter driving the WT Cas13 serves as the positive control (see e.g., FIG. 13A middle panel; see e.g., setting 3 in FIG. 13B, corresponding to “IP-WT” in FIG. 13B-13D). The highest inducibility among the 3 IPs was 30% inducibility with the promoter CAGA12. […] As such, the aforementioned constructs (e.g., split recombinase and IPs) can be integrated into AAVS1 sites and their performance evaluated.
# recombinase reporter = test: Split recombinases (Cre, Flp, PhiC, vCre) with tandem or single CaffVHH, recombinase reporters, caffeine induction; conditions: 48 hours of 100 uM caffeine
# HLA-A2 = test: Endogenous gene knockdown: HLA-A2 antibody staining of HEK 293FT cells transfected with B2M targeting gRNA, flow cytometry; conditions: RAP inducible split pair, compared with WT RfxCas13
# mCherry [2] = test: mCherry knockdown by inducible split RfxCas13d (ON switch) in transfected HEK 293 FT cells, flow cytometry
# mCherry [3] = test: mCherry knockdown by LwaCas13a and PspCas13b, WT and GIB CID split sites
# Text: Cas13b was able to facilitate over 70% mCherry knockdown. […] Two additional mCherry-targeting crRNA sequences for LwaCas13a were identified; they both offered moderate mCherry knockdown (around 50% in populations highly expressing Cas13a).
# With the LwaCas13a and PspCas13b specific mCherry-targeting crRNAs, 12 split sites were screened in PspCas13b, and 11 split sites were screened in LwaCas13a sequences.
# Therefore, it is contemplated herein that the knockdown efficiency of split LwaCas13a can be brought up by optimized crRNA design. Moreover, without wishing to be bound by theory, with a more efficient crRNA, GIB-induced knockdown efficiency by splits 397/398, 488/489, 605/606, 786/787, or 826/827 could also be enhanced.
molecule,measurement,setting,value
"CCCCCCCCCCCCCC(=O)O[C@@H]1[C@@H](C)[C@@]2(O)[C@@H](C=C(CO)C[C@]3(O)C(=O)C(C)=C[C@@H]23)[C@@H]2C(C)(C)[C@]12OC(C)=O [PMA, reference compound]",mCherry knockdown by split Cas13d or WTCas13 expressed from inducible promoter,mCherry [1],induced mCherry knockdown
same,activation of NFkB inducible promoter,NFkB promoter,turned on
TNFalpha,mCherry knockdown by split Cas13d or WTCas13 expressed from inducible promoter,mCherry [1],induced mCherry knockdown
B1,"induced recombination, tandem CaffVHH compared to single CaffVHH",recombinase reporter,"comparable induced recombination, if not better"
B2,decrease in HLA-A2 expression level,HLA-A2,comparable decrease in HLA-A2 expression level
same,performance after NES/NLS compartmentalization,"mCherry [2]; GIB induced split pairs, NES on one moiety, NLS on the other",high inducibility with minimal leakiness
same,performance of reversed CID orientation versus original orientation,"mCherry [2]; GIB: N ss-GAI/GID-ss C, ABA: N ss-PYL/ABI-ss C",stronger inducibility and weaker leakiness
same,knockdown across the various CID systems,"mCherry [2]; split pairs coupled with CID domains, with inducer",efficient knockdown; also recorded: consistently strong drug-induced knockdown
B3,mCherry knockdown compared to no crRNA control group,mCherry [3]; position-matched LwaCas13a crRNA,did not achieve mCh knockdown
same,mCherry knockdown,"mCherry [3]; two additional mCherry-targeting crRNA sequences, populations highly expressing Cas13a",around 50%
